Measurements published in US10487337B2, “Methods for monocot plant improvement” (Agresearch Limited, priority 2014, dated 2019).

Tests used:
[1] = tested on: Wild-type (Col-0), Δppd mutant and transgenic PPD-OX seedlings; test: Hypocotyl elongation of seedlings on exogenous GA or PAC; format: in vivo, Arabidopsis thaliana
Source text: Giberellic acid (GA) treatment is known to reduce levels of the DELLA proteins (including RGA1) which are GA repressors; to determine the relationship between PPD, DELLA and the GA signalling pathway the applicants performed a yeast two-hybrid (Y2H) analysis between PPD and DELLA (RGA1) and applied gibberellic acid (GA) hormone and GA biosynthesis inhibitor (paclobutrazol, PAC) to wild type, Δppd mutant, and the Δppd mutant PPD over expressor (PPD-OX).
For exogenous applications of GA or PAC seeds were surface sterilised with 70% ethanol, 0.01% Triton X-100 for 10 min, followed by 100% ethanol for 5 min, air dried on sterile filter paper, and transferred to media plates containing half-strength MS salts, 1% sucrose and 0.8% agar. Plates were incubated for 5 days at 4° C. in the dark then transferred to 24° C. with a 14 h light/10 h dark daily cycle. Light was provided by fluorescent tubes (Philips TLD 58W/865) at an intensity of 100 μM m^−2s^−1. Wild-type (Col-0) Δppd mutant and transgenic PPD-OX seedlings were grown for five days on medium with different concentrations of GA (FIG. 11A) or PAC (FIG. 11B). GA (ACROS organics), and PAC (Sigma-Aldrich) were dissolved in ethanol and acetone respectively, filter sterilised and incorporated into media plates. Ethanol or acetone (0.5%) was used for mock treatments. Seedlings were grown at 24° C. under a 14 h light/10 h dark daily cycle for 5 days before hypocotyl lengths were analysed (n=35). Each treatment was repeated twice; error bars=standard error of the mean.

ryegrass plants [2] = test: Root biomass analysis of grass transformants; format: in vivo; conditions: constitutive promoter, root growth beyond the grow bag, approximately 6 weeks
Experimental: An equal number (typically 4-10) of tillers were taken from WT and ryegrass plants transformed with Arabidopsis PPD under one of three root promoters. Tillers were planted into plastic grow bags containing potting mix and pruned to be of equal height. […] The increase in root biomass was quantified removing the attached above ground portion (leaves and shoots) and drying the roots at 65° C. for 48 hr then weighing the dry weights (Tables 3 and 4)
An equal number (typically 4-10) of tillers were taken from WT and ryegrass plants transformed with Arabidopsis PPD under a constitutive promoter. Tillers were planted into plastic grow bags containing potting mix and pruned to be of equal height. […] The increase in root biomass was quantified removing the attached above ground portion (leaves and shoots) and drying the roots at 65° C. for 48 hr then weighing the dry weights (Table 5).

Arabidopsis Δppd mutant = test: Complementation of the Arabidopsis Δppd mutant leaf phenotype; format: in vivo; conditions: CaMV35s promoter, Arabidopsis thaliana ecotype Landsberg erecta, FIG. 13
Source text: The functionality of any PEAPOD sequence can be confirmed by complementation of the Arabidopsis Δppd mutant leaf phenotype. Complementation of the Arabidopsis Δppd mutant leaf phenotype was first used to identify the Arabidopsis PPD gene (White 2006). This was seen by a restoration of the wild type flattened leaf phenotype and normal rosette shape as opposed to the domed leaf and the twisting of the rosette to a “propeller” phenotype.
Arabidopsis thaliana (L.) Heynh ecotype Ler can be used as wild-type (WT). The Δppd loss of function deletion mutant (with PPD1 and PPD2 deleted) is as previously described in White 2006, PNAS 103, 13238-13243.
Plants are grown in a temperature-controlled glasshouse at a continuous 21° C. or in a controlled environment cabinet at 23° C. in 16-h light_8-h dark cycles.
Constructs above can be transformed into Arabidopsis by the floral dip infiltration method (Clough and Bent, 1998, Plant J 16, 735-43). The Δppd line is transformed to express the PPD polypeptides by standard techniques. Transgenic plants are confirmed by standard PCR analysis techniques with a combination of transgene-specific and T-DNA primers.
Complementation of the Δppd line to produce a wild-type leaf and rosette phenotype in T1 seedlings (the off-spring of the infiltrated plant) confirms PEAPOD functionality of the introduced gene, which can be shown in photographs.

ryegrass plants [3] = test: Leaf biomass analysis of grass transformants; format: in vivo; conditions: constitutive promoter, observed leaf growth, approximately 6 weeks
Experimental: An equal number (typically 4-10) of tillers were taken from WT and ryegrass plants transformed with Arabidopsis PPD under one of two green tissue promoters. Tillers were planted into plastic grow bags containing potting mix and pruned to be of equal height. […] The increase in leaf/shoot biomass can be quantified removing the attached above ground portion (leaves and shoots) and drying them at 65° C. for 48 hr then weighing the dry weights.
An equal number (typically 4-10) of tillers were taken from WT and ryegrass plants transformed with Arabidopsis PPD under a constitutive promoter. Tillers were planted into plastic grow bags containing potting mix and pruned to be of equal height. […] The increase in leaf/shoot biomass was quantified removing the attached above ground portion (leaves and shoots) and drying them at 65° C. for 48 hr then weighing the dry weights (Table 2).

Row | Molecule | root biomass/growth/length/branching compared to WT plants (ryegrass plants [2]) | PEAPOD functionality by complementation of the Δppd deletion mutant (Arabidopsis Δppd mutant) | leaf biomass/growth/length/branching compared to WT plants (ryegrass plants [3]) | other results
1 | CC(C)(C)[C@@H](O)[C@@H](Cc1ccc(Cl)cc1)n1cncn1 (racemic) [PAC, paclobutrazol] | – | – | – | hypocotyl length ([1]; PPD-OX seedlings, PAC beyond 0.1 μM): decrease in hypocotyl length; hypocotyl elongation ([1]; PPD-OX seedlings, PAC up to 0.1 μM): relatively insensitive; hypocotyl elongation ([1]; wild type seedlings, 0 to 10 μM PAC, 5 days): dose dependent decrease of hypocotyl elongation; hypocotyl elongation ([1]; Δppd seedlings, 0 to 10 μM PAC, compared with wild type): larger reduction in hypocotyl elongation
2 | C=C1C[C@]23C[C@@]1(O)CC[C@H]2[C@@]12C=C[C@H](O)[C@@](C)(C(=O)O1)[C@H]2[C@@H]3C(=O)O [GA, gibberellic acid] | – | – | – | hypocotyl elongation ([1]; PPD-OX seedlings, 1 μM GA, 5 days): increased hypocotyl elongation; hypocotyl elongation ([1]; PPD-OX seedlings, up to 10 μM GA, 5 days): hypersensitive elongation; hypocotyl elongation ([1]; WT seedlings, 5-50 μM GA, 5 days): elongation of the WT hypocotyl occurred in a dose dependent manner; hypocotyl elongation ([1]; wild type (WT) seedlings, 1 μM GA, 5 days): did not promote elongation; hypocotyl elongation ([1]; Δppd seedlings, 1 μM GA, 5 days): increased hypocotyl elongation; hypocotyl elongation ([1]; Δppd seedlings, up to 5 μM GA, 5 days): hypersensitive elongation
3 | Picea sitchensis PPD: PEAPOD protein of Picea sitchensis, SEQ ID NO: 5 (protein, listed as Picea sitchensis) MRGGERAPGSRPSLDKPLEELTEEDIFQLTREDCRRYLKEKGMRRPSWNKSQAIQQVLSLKSLFESKPNQQSKKPSKHKPATLQFETARDSTFAQSSVSQEQSLGFSWSKEVLDKGTAERQRLCSDSQEAHEIPRLGSKPPQSNTEGKRCAHDGHGRKSAQPLVRLPANFKNDCSNRQSSHTSESQPDTLLRSDSFQQPTAQLTIFYAGMVNVYDDVPLDKA | increase in root biomass/growth/length/branching | functionally equivalent | increase in leaf biomass/growth/length/branching | –
4 | Musa acuminate PPD: PEAPOD protein of Musa acuminate, SEQ ID NO: 108/114 (protein, listed as Musa acuminata) MNPGETTPPSPLDKPLAELTEEDIAQLTREDCRRFLKAKGMRRPSWNKSQAIQQVISLKALLEGRPGCDDCPAGGGILQKLLTSSPSEPLSPPQDSPPPAPKEGGSGSQPLAKEPSPYRRRDPIPPPYSAGNPTCQTPIAGADLPHPPEKRCPSPRLTAEVPVGQMTIFYDGMVNVYDGVSADQARSIMELAASPVCFDDPTGAFSPARPPAFRFPPGLPRPAPVPTAPSFVGTFPISPAGKRCYSYCSFRSSVSLLTTTEGPTSRKASLQRYLEKRKDRYGHLPTESILLVSGSGGGSAKGELRGHPFEGKPIPNPLLGLDSTRTGHHHHHHGS | increase in root biomass/growth/length/branching | functionally equivalent | increase in leaf biomass/growth/length/branching | –
5 | Trifolium repens PPD: PEAPOD protein of Trifolium repens, SEQ ID NO: 11 (protein, listed as Trifolium repens) MNGGSTVSFRSILDKPLNQLTEDDISQLTREDCRRFLKDKGMRRPSWNKSQAIQQVISLKALLEPTDDDLPAPVGVSSAIHHHHHHHPQPPQRNLNEAPVKGSDLDDTGFHTAEDLNKSTSTAVEIPTETNDANVVKSSGGCVASGSFGQMTIFYCGKVNVYDGVSPDKARSIMQLAACPSSFPQDNLLNKNAAVWASPCNIPIDKDVLFPNDTAILQVAQTDKMVEYPLQYREKGSIARDADVEGQASRNASLQRYREKRKDRGRSKGNKLTGITSSNFEMYLNLPVKLHASNGNSSRSSTDSPPQPRLPLVSGGSAENQPKVTLPIDLNDKDVQEC | increase in root biomass/growth/length/branching | functionally equivalent | increase in leaf biomass/growth/length/branching | –
6 | Amborella trichopoda PPD: PEAPOD protein of Amborella trichopoda, SEQ ID NO: 12 (protein, listed as Amborella trichopoda) MTAGDGSIRSILDKPLEELTEEDISQLTREDCRRYLKEKGMRRPSWNKYQAIQQVLSLKGLLEGKPCDDNSDVFSHRSPITVIPNVGSMREKEKAVNIADPEISGSHQPNFRREIHETTRERALPASDWPPSQEPVSQMTIFYAGAVNVYNDIPEDKVQAIIYLAGKSDSLQQTNVIRTGPDQCIASAASPSLNDLHSRRIHPTSNITTSQSLRVATSLPVGPHSEVPKTRKTSVQRFLEKRKDRGRLKGTLASGGSSKRGSSCLELYATSRLKSEGVATTTTQSNMNNVVVSPSNPRMPLNPGSCSWVEN | increase in root biomass/growth/length/branching | functionally equivalent | increase in leaf biomass/growth/length/branching | –
7 | Selaginella moellendorffii PPD: PEAPOD protein of Selaginella moellendorffii, SEQ ID NO: 110/116 (protein, listed as Selaginella moellendorffii) MSSMVDFLGIEEKVSTSVSAERLKKLEELTDEDVMQLTREDCRRYLKEKGMRRPSWNKAQAVQQLLSLKSLCDPSPASSGAAKRSPSPPLDEAPAKKPMAMTSIDLKAAAAVDAANLTMFYDGAVSVFDDVSPDKASLFPLAYAIMLLAGNVKSWPSINVAANTNKVVISSYELPQARKASLQRFLQRRREKTAKEAASKGNSNKSPCHGESSGKHASDATDPATSPLLTEVSSGSGGGSAKGELRGHPFEGKPIPNPLLGLDSTRTGHHHHHHGS | increase in root biomass/growth/length/branching | functionally equivalent | increase in leaf biomass/growth/length/branching | –
